Data as given in US9090686B2, “Antibodies for the treatment of HIV” (Pierre Fabre Medicament, priority 2009, dated 2015).
Positions count from the first letter of the chain named. In names and notes the source's numbering stands. Each block holds one molecule with its values, some of them ahead of it.

Columns and labels:
[1] = system: HIV-1 primary isolate 89.6 (dual X4/R5 virus); test: Neutralization assay, multiple rounds of replication on primary PBMC, isolate 89.6; format: cell-based; settings: single agent; 90% decrease of viral titer, multiple rounds, day 7 p24 ELISA
Method: This assay that combines serial dilutions of c515H7 Mab or Maraviroc or combination of both with serial dilutions of virus, analyzes multiple rounds of infection on PBMC (peripheral blood mononuclear cells). Briefly, quadruplicate 25-μl aliquots of serial dilutions (twofold) of c515H7 Mabs or Maraviroc or combination of both were each incubated with 25 μl of serial dilutions of virus in prehydrated 96-well filter plates (1.25-μm pore size, Durapor Dv; Millipore, Molsheim, France). A control titration of the virus (25 μl of RPMI replacing the diluted c515H7 Mabs or Maraviroc) was performed on the same plate as the titrations in the presence of dilutions of the c515H7 Mabs or Maraviroc or combination of both. After 1 h at 37° C., 25 μl of PHA-stimulated PBMC at a concentration of 4×10^6 cells/ml (pool of PHA activated PBMC from five healthy donors) was added to achieve a 75-μl final culture volume of RPMI, 10% fetal calf serum (FCS), and 20 IU of interleukin-2 (IL-2) per ml (R&D System). After 24 h at 37° C., 100 μl of the same culture medium was added. Two washings (200 μl of RPMI each) were performed by filtration on day 4 to remove the c515H7 Mabs and Maraviroc, and 200 μl of fresh culture medium was added. On day 7, the presence of p24 in the culture supernatants was measured by ELISA and compared to that of the negative controls (cultures infected with dilutions of virus and maintained in the presence of 10^−6 M zidovudine [AZT]) to determine positive wells. […]
This assay that combines serial dilutions of hz515H7 Mab or Maraviroc or combination of both with serial dilutions of virus, analyzes multiple rounds of infection on PBMC (peripheral blood mononuclear cells). […] On day 7, the presence of p24 in the culture supernatants was measured by ELISA and compared to that of the negative controls (cultures infected with dilutions of virus and maintained in the presence of 10^−6 M zidovudine [AZT]) to determine positive wells. […]

[2] = biological target: T1, human CXCR4 (Homo sapiens, UniProt P61073); test: SDF-1-induced calcium release in CHO-CXCR4 cells; format: cell-based; design: expressed in transfected cells; settings: SDF-1 100 nM, recombinant CHO/CXCR4, at about 40 sec.
T1 sequence (P61073 whole entry): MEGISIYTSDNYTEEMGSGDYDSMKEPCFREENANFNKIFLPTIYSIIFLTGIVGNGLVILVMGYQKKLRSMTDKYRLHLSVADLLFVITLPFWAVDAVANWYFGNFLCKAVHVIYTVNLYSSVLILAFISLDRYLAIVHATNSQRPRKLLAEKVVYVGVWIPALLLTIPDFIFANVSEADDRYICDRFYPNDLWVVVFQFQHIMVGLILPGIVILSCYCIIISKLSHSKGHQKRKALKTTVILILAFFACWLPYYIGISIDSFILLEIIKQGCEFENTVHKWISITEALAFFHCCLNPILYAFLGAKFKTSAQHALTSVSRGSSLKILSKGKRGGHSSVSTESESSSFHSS
Excerpt: This functional assay was designed to monitor CXCR4 receptor signaling via stimulation of the phospholipase C pathway, inducing calcium liberation from intracellular stores from the endoplasmic reticulum.
CHO-K1 cells, stably and constitutively expressing human CXCR4 receptor were obtained upon transfection of naïve CHO-K1 cells (ATCC CCL-61) with a mammalian expression vector carrying the whole coding sequence of human CXCR4 receptor (RefSeq NM_003467). Cells were propagated in complete culture medium [DMEM-Ham's F12 supplemented with 5% fetal calf serum (FCS) and 500 μg/ml of geneticin]. Cells were plated in black 96MW plates at a density of 100,000 cells/well in appropriate culture medium. Cells were starved overnight before conducting the experiments. Cells are loaded with the fluorescent calcium dye (Fluo-4 No Wash, Invitrogen US) in loading buffer [HBSS 1×, HEPES 20 mM, Probenicid acid 25 mM] for 30 min. at 37° C. followed by 30 min. at 25° C. Stimulation by SDF-1 was performed by direct injection into each well. For antagonism experiments, 10 μl of Mab solution are added directly into the loading buffer at least 10 min. before SDF-1. Kinetic fluorescence measurements are performed on a multi-mode fluorescence microplate reader Mithras LB940 (Berthold) using the following settings: excitation at 485 nm, emission at 535 nm, excitation energy at 10000 arbitrary units. Fluorescence in each well is recorded during 0.1 second every second and for a time period of 20 sec. prior SDF-1 injection (basal signal). Then 20 μl of SDF-1 are injected and data recording follows for a time period of 2 min. Each experimental condition is performed in duplicate. Values for each well are first corrected by subtracting the basal fluorescence and the fluorescence emitted by a control well without cells. Relative data are expressed as a percentage of the maximal stimulation obtained by SDF-1 (100 nM).

[3] = biological target: T2, CXCR4 homodimer (Homo sapiens, UniProt P61073); test: BRET on HEK293 cells expressing CXCR4/Rluc+CXCR4/YFP; format: cell-based
T2 construct: expressed in transfected cells; host or cells: HEK293, transient transfection
T2 sequence (P61073 whole entry): as above
T2 sequence (P61073 whole entry): as above
Excerpt: This functional assay allows to evaluate the conformational changes induced upon SDF-1 and/or 515H7 Mab binding to CXCR4 receptor at the level of CXCR4 homodimer.
(§1) Expression vectors for the investigated interaction partners were constructed as fusion proteins with the corresponding dye (Renilla reniformis luciferase, Rluc and Yellow fluorescent protein, YFP) by applying conventional molecular biology techniques. Two days prior performing BRET experiments, HEK293 cells were transiently transfected with expression vectors coding for the corresponding BRET partners: [CXCR4/Rluc+CXCR4/YFP] to study CXCR4 homodimerization. The day after, cells were distributed in poly-lysine pre-coated white 96 MW plates in complete culture medium [DMEM supplemented with 10% FBS]. Cells were first cultivated at 37° C. with CO2 5% in order to allow cell attachment to the plate. Cells were then starved with 200 μl DMEM/well overnight Immediately prior to the BRET experiment, DMEM was removed and cells were quickly washed with PBS. Cells were then incubated in PBS in the presence or absence of antibody, 10 min at 37° C. prior to the addition of coelenterazine H 5 μM with or without SDF-1 300 nM in a final volume of 50 μl. After incubation for further 10 minutes at 37° C., light-emission acquisition at 485 nm and 530 nm was initiated using the Mithras LB940 multilabel reader (Berthold) (1 s/wavelength/well repeated 15 times at room temperature).
Calculation of BRET ratio was performed as previously described (Angers et al., 2000): [(emission530 nm)−(emission485 nm)×Cf]/(emission485 nm), where Cf=(emission530 nm)/(emission485 nm) for cells expressing the Rluc fusion protein alone under the same experimental conditions. […] For sake of readability, results are expressed in mi11iBRET units (mBU); mBU corresponds to the BRET ratio multiplied by 1000.
This functional assay allows to evaluate the conformational changes induced upon SDF-1 and/or c515H7 Mab binding to CXCR4 receptor at the level of CXCR4 homodimer.
as §1, with “Cells were then incubated in PBS in the presence or absence of antibody, 10 min at 37° C. prior to the addition of coelenterazine H 5 μM with or without SDF-1 300 nM in a final volume of 50 μl.” left out
Calculation of BRET ratio was performed as previously described (Angers et al., 2000): [(emission530 nm)−(emission485 nm)×Cf]/(emission485 nm), where Cf=(emission530 nm)/(emission485 nm) for cells expressing the Rluc fusion protein alone under the same experimental conditions. […] For sake of readability, results are expressed in milliBRET units (mBU); mBU corresponds to the BRET ratio multiplied by 1000. […]

[4] = biological target: T1, human CXCR4; test: Cross blocking of biotinylated murine 515H7 on CXCR4 transfected NIH3T3 cells, flow cytometry; format: binding; design: expressed in transfected cells; host or cells: NIH3T3 (mouse fibroblasts)
Method: FIG. 19: Cross blocking of the biotinylated murine antibody 515H7 by the chimeric 515H7 and different variants of the humanized 515H7. The activity of the humanized variants of 515H7 (hz515H7) to cross block the parental murine antibody 515H7 was evaluated by flow cytometry using CXCR4 transfected NIH3T3 cells. The activity of the humanized variants was compared to the chimeric 515H7.
Binding of humanized variants of 515H7 was determined on a NIH3T3 cell line stably transfected with human CXCR4. The binding activity was evaluated by a competition assay with the biotinylated mouse antibody. In a second attempt, humanized antibodies were evaluated for their ability to inhibit binding of biotinylated SDF-1 to RAMOS cells. RAMOS cells were chosen because of their high expression of CXCR4 and low expression of CXCR7 and SDF-1.
In a first series of experiments, the anti-CXCR4 binding activities of the three first humanized variants were analysed. The VH variant 1 (VH1) was combined with the murine VL and these constructs were evaluated in their capacity to inhibit the binding of a biotinylated murine 515H7 parental antibody. The amino acid sequence of the variable domain of VH1 comprises the SEQ ID No. 90 whereas the nucleotide sequence comprises the SEQ ID No. 91. […]

Molecule: Maraviroc [reference compound]
- IC90 [1]: > 50 µg/mL

Molecule: SDF-1: Stromal-cell-Derived Factor-1, the natural ligand of CXCR4 [reference compound]
- maximal intensity of calcium signal [2]: > 140 % over basal fluorescence
- increase of BRET signal ([3]; SDF-1 300 nM): about 20%

Other lines, results leading:

- cross blocking of biotinylated murine 515H7, compared to chimeric 515H7 [4]: No reduction in the activity
B1: hz515H7 VH1 VL2: humanized VH variant 1 (no back mutations) combined with variant 2 of VL (antibody, V domains shown)
VH: EVQLVESGGGLVQPGRSLRLSCTASGFTFTDNYMSWVRQAPGKGLEWVGFIRNKANGYTTEYAASVKGRFTISRDDSKSIAYLQMNSLKTEDTAVYYCARDVGSNYFDYWGQGTLVTVSS
VL: DIVMTQSPSSLAVSLGERATMSCKSSQSLFNSRTRKNYLAWYQQKPGQSPKLLIYWASARDSGVPARFTGSGSETYFTLTISRVQAEDLAVYYCMQSFNLRTFGQGTKVEIK

- inhibition of SDF-1-induced BRET increase ([3]; SDF-1 100 nM): about 88%
B2: hz515H7 VH1 D76N VL2: humanized 515H7 Mab; variable domains VH1 D76N (SEQ ID No. 64) and VL2 (SEQ ID No. 65) (antibody, listed as Mus musculus, V domains shown)
VH: B1 VH with D76N
VL: B1 VL
